The source of these data is PMC9044917 (Nature structural & molecular biology, 2022).

B1: IMPDH1(514)-N198K (enzyme)
chain: not shown
B2: IMPDH1(514)-R105W (enzyme)
chain: not shown
B3: IMPDH1(514)-T116M (enzyme)
chain: not shown
B4: IMPDH1(514)-D226N (enzyme)
chain: not shown
B5: IMPDH1(514)-R224P (enzyme)
chain: not shown
B6: IMPDH1(514)-V268I (enzyme)
chain: not shown
B7: IMPDH1(514)-K238E (enzyme)
chain: not shown
B8: IMPDH1(514)-R231P (enzyme)
chain: not shown
B9: IMPDH1(514)-H372P (enzyme)
chain: not shown
B10: IMPDH1(514) (enzyme)
chain: not shown

One data set deals with the molecule itself. In words: negative stain EM.
Turning to B1, the binding result is on record as “binds”.
Still for that read-out and setting: with B2 the entry was “binds”; with B3, “binds”.
Take B4: the binding result is on record as “binds”.
For B5, the binding result is “binds”.
Still for that read-out and setting: next, B6: “binds”.
With B7, the binding result is listed as “binds”.
For B8, the binding result is given as “binds”.
On to B9, for which the binding result is “binds”.

The next data set concerns the molecule itself. Put plainly: negative stain EM. This is another data set of the same source.
In the case of B10, the binding result is given as “binds”.
